From patent publication US20120172293A1 (Takeda / Millennium, published 2012)
Non-standard residues stand in square brackets, D forms with d. No end group written: not given here. *: point of attachment. X11 = ((1S)-1-carboxy-3-methylbutyl)carbamoyl, CC(C)C[C@H](NC(=O)*)C(=O)O; Phe(3-Me) = Cc1cccc(C[C@H](N)C(=O)O)c1; tBuAla = CC(C)(C)C[C@H](N)C(=O)O; 4Pal = N[C@@H](Cc1ccncc1)C(=O)O; Cha = N[C@@H](CC1CCCCC1)C(=O)O; 4Amb = NCc1ccc(C(=O)O)cc1; Aib = CC(C)(N)C(=O)O; Ahx = NCCCCCC(=O)O

T1: human Y2 receptor (human, UniProt P49146 1-381)
T1 sequence (looked up): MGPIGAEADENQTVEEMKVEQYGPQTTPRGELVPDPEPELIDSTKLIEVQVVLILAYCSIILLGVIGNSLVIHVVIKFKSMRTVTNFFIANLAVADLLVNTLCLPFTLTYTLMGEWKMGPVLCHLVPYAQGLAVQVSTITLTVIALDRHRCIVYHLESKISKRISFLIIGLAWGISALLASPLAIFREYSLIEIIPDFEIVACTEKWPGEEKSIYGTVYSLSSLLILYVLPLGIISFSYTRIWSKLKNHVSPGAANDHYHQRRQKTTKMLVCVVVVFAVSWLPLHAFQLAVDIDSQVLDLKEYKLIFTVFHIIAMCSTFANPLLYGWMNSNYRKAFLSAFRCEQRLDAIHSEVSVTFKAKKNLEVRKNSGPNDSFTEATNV

T2: human Y2 receptor (human), P49146
T2 chain: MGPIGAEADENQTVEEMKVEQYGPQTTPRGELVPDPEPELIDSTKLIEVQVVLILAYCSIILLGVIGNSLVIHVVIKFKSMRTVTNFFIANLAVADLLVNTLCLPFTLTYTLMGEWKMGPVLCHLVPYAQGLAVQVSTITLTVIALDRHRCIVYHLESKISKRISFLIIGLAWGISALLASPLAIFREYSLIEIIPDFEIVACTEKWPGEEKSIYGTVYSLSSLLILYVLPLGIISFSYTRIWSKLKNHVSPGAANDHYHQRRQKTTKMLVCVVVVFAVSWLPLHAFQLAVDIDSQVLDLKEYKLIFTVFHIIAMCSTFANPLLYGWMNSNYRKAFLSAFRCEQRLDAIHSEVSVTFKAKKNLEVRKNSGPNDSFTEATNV


Experiments:
human Y2 receptor [1] = target: T1, human Y2 receptor; assay: cell-based or functional assay
human Y2 receptor [2] = target: T1, human Y2 receptor; assay: RBA: displacement of [125I]-PYY from hY2R/CHO membranes
Description: After incubation at room temperature for 60 minutes, the mixture was filtered through the cell harvester FilterMate (PerkinElmer) using UniFilter-96 GF/C treated with polyethylenimine (PEI) solution (20 mM Tris, 0.3% PEI, pH 7.4), and the filter was washed 3 times with a filtering buffer (50 mM Tris, 5 mM MgCl₂, 150 mM NaCl, 0.03% NaN₃, 0.05% CHAPS, pH 7.4). Thereafter, UniFilter-96 GF/C was dried in a mechanical drier for 1 hour, 15 μl of the liquid scintillator MicroScint O (PerkinElmer) was added to each well, and a measurement was taken using TopCount (PerkinElmer). The data obtained were analyzed using Prism to calculate the IC₅₀ value.

[3] = target: T2, human Y2 receptor (human), P49146; assay: cell-based or functional assay
[4] = target: T2, human Y2 receptor (human), P49146; assay: RBA: [125I]-PYY displacement, hY2R/CHO membranes

Binder	GBA EC50 Ratio ([35S]GTPγS binding) (human Y2 receptor [1])	IC50 Ratio (human Y2 receptor [2])	GBA EC50 Ratio (vs PYY(3-36)), [35S]GTPγS [3]	IC50 Ratio (vs PYY(3-36)) [4]
X11-E[dP]RH[Cha][Cha]NK[Aib]TRQR[Cha]-NH2 (SMILES CC(C)C[C@H](NC(=O)N[C@@H](CCC(=O)O)C(=O)N1CCC[C@@H]1C(=O)N[C@@H](CCCNC(=N)N)C(=O)N[C@@H](Cc1c[nH]cn1)C(=O)N[C@@H](CC1CCCCC1)C(=O)N[C@@H](CC1CCCCC1)C(=O)N[C@@H](CC(N)=O)C(=O)N[C@@H](CCCCN)C(=O)NC(C)(C)C(=O)N[C@H](C(=O)N[C@@H](CCCNC(=N)N)C(=O)N[C@@H](CCC(N)=O)C(=O)N[C@@H](CCCNC(=N)N)C(=O)N[C@@H](CC1CCCCC1)C(N)=O)[C@@H](C)O)C(=O)O, also called compound No. 254) [[(1S)-1-carboxy-3-methylbutyl]carbamoyl-[Glu23, D-Pro24, Cha27,28,36, Lys30, Aib31]-PYY(23-36)]	1.5 EC50 compound/EC50 PYY(3-36)	2.8 IC50 compound/IC50 PYY(3-36)		
[4Amb]RAYINLVTRQRY (ends and bridges not checked) [4-Aminomethylbenzoyl-[Ala26, Ile28, VAl31]-PYY(25-36)]			4	7.2
Ac-S[dP]RH[Cha][tBuAla]NK[Aib]TRQR[Phe(3-Me)]-NH2 (SMILES CC(=O)N[C@@H](CO)C(=O)N1CCC[C@@H]1C(=O)N[C@@H](CCCNC(=N)N)C(=O)N[C@@H](Cc1c[nH]cn1)C(=O)N[C@@H](CC1CCCCC1)C(=O)N[C@@H](CC(C)(C)C)C(=O)N[C@@H](CC(N)=O)C(=O)N[C@@H](CCCCN)C(=O)NC(C)(C)C(=O)N[C@H](C(=O)N[C@@H](CCCNC(=N)N)C(=O)N[C@@H](CCC(N)=O)C(=O)N[C@@H](CCCNC(=N)N)C(=O)N[C@@H](Cc1cccc(C)c1)C(N)=O)[C@@H](C)O, also called compound No. 258) [Ac-[D-Pro24, Cha27, Leu(Me)28, Lys30, Aib31, Phe(3Me)36]-PYY(23-36)]	0.78 EC50 compound/EC50 PYY(3-36)	0.61 IC50 compound/IC50 PYY(3-36)		
Ac-Y[dY]AS[dP]RH[Cha][Cha]NL[Aib]TRQR[Cha]-NH2 (SMILES CC(=O)N[C@@H](Cc1ccc(O)cc1)C(=O)N[C@H](Cc1ccc(O)cc1)C(=O)N[C@@H](C)C(=O)N[C@@H](CO)C(=O)N1CCC[C@@H]1C(=O)N[C@@H](CCCNC(=N)N)C(=O)N[C@@H](Cc1c[nH]cn1)C(=O)N[C@@H](CC1CCCCC1)C(=O)N[C@@H](CC1CCCCC1)C(=O)N[C@@H](CC(N)=O)C(=O)N[C@@H](CC(C)C)C(=O)NC(C)(C)C(=O)N[C@H](C(=O)N[C@@H](CCCNC(=N)N)C(=O)N[C@@H](CCC(N)=O)C(=O)N[C@@H](CCCNC(=N)N)C(=O)N[C@@H](CC1CCCCC1)C(N)=O)[C@@H](C)O, also called compound No. 355) [Ac-[D-Tyr21, D-Pro24, Cha27,28,36, Aib31]-PYY(20-36)]	1.1 EC50 compound/EC50 PYY(3-36)	1.4 IC50 compound/IC50 PYY(3-36)		
Ac-R[dY]AS[dP]R[4Pal][Cha][Aib]NK[Aib]TRQR[Phe(3-Me)]-NH2 (SMILES CC(=O)N[C@@H](CCCNC(=N)N)C(=O)N[C@H](Cc1ccc(O)cc1)C(=O)N[C@@H](C)C(=O)N[C@@H](CO)C(=O)N1CCC[C@@H]1C(=O)N[C@@H](CCCNC(=N)N)C(=O)N[C@@H](Cc1ccncc1)C(=O)N[C@@H](CC1CCCCC1)C(=O)NC(C)(C)C(=O)N[C@@H](CC(N)=O)C(=O)N[C@@H](CCCCN)C(=O)NC(C)(C)C(=O)N[C@H](C(=O)N[C@@H](CCCNC(=N)N)C(=O)N[C@@H](CCC(N)=O)C(=O)N[C@@H](CCCNC(=N)N)C(=O)N[C@@H](Cc1cccc(C)c1)C(N)=O)[C@@H](C)O, also called compound No. 262) [Ac-[Arg20, D-Tyr21, D-Pro24, Pya(4)26, Cha27, Aib28,31, Lys30, Phe(3Me)36]-PYY(20-36)]	1.7 EC50 compound/EC50 PYY(3-36)	0.5 IC50 compound/IC50 PYY(3-36)		

Other lines, results leading:

GBA EC50 Ratio ([35S]GTPγS binding) (human Y2 receptor [1])	IC50 Ratio (human Y2 receptor [2])	GBA EC50 Ratio (vs PYY(3-36)), [35S]GTPγS [3]	IC50 Ratio (vs PYY(3-36)) [4]	Binder
4.8 EC50 compound/EC50 PYY(3-36)	9.1 IC50 compound/IC50 PYY(3-36)			IK[Ahx]RAYINLITRQRY-NH2 (N-terminus assumed; SMILES CC[C@H](C)[C@H](N)C(=O)N[C@@H](CCCCN)C(=O)NCCCCCC(=O)N[C@@H](CCCNC(=N)N)C(=O)N[C@@H](C)C(=O)N[C@@H](Cc1ccc(O)cc1)C(=O)N[C@H](C(=O)N[C@@H](CC(N)=O)C(=O)N[C@@H](CC(C)C)C(=O)N[C@H](C(=O)N[C@H](C(=O)N[C@@H](CCCNC(=N)N)C(=O)N[C@@H](CCC(N)=O)C(=O)N[C@@H](CCCNC(=N)N)C(=O)N[C@@H](Cc1ccc(O)cc1)C(N)=O)[C@@H](C)O)[C@@H](C)CC)[C@@H](C)CC, also called compound No. 353) [[Ile22,28,31, Lys23, Acp24, Ala26]-PYY(22-36)]
0.85 EC50 compound/EC50 PYY(3-36)	1.1 IC50 compound/IC50 PYY(3-36)			X11-S[dP]RH[Cha][tBuAla]NK[Aib]TRQR[Cha]-NH2 (SMILES CC(C)C[C@H](NC(=O)N[C@@H](CO)C(=O)N1CCC[C@@H]1C(=O)N[C@@H](CCCNC(=N)N)C(=O)N[C@@H](Cc1c[nH]cn1)C(=O)N[C@@H](CC1CCCCC1)C(=O)N[C@@H](CC(C)(C)C)C(=O)N[C@@H](CC(N)=O)C(=O)N[C@@H](CCCCN)C(=O)NC(C)(C)C(=O)N[C@H](C(=O)N[C@@H](CCCNC(=N)N)C(=O)N[C@@H](CCC(N)=O)C(=O)N[C@@H](CCCNC(=N)N)C(=O)N[C@@H](CC1CCCCC1)C(N)=O)[C@@H](C)O)C(=O)O, also called compound No. 253) [[(1S)-1-carboxy-3-methylbutyl]carbamoyl-[D-Pro24, Cha27,36, Leu(Me)28, Lys30, Aib31]-PYY(23-36)]
